For the experiment, the target named is T1, Kir2.1 tagged with mVenus and PAmCherry (human), P63252.
T1 chain: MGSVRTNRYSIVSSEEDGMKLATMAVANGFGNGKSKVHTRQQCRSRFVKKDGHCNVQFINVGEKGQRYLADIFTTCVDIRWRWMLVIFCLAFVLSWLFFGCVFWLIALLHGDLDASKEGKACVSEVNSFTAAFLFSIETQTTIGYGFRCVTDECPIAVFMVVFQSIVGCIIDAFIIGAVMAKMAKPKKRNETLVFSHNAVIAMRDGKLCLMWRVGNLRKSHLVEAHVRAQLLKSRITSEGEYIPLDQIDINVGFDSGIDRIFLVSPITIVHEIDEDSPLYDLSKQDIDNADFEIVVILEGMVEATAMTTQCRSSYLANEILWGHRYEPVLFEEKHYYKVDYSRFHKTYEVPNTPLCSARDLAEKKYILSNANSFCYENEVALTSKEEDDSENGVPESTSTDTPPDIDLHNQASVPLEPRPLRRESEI
As to the kind of experiment: native gel or EMSA; high-resolution clear native electrophoresis (hrCNE); lysate of transfected HEK293T cells in 0.1 M sodium phosphate with 0.5% digitonin or 20 mM DDM; 4-14% acrylamide gradient gel run at 4 °C; mVenus fluorescence scanned; VGLUTs and sialin with and without PNGaseF. Particulars: remark: other sources report otherwise.

B1: Kir2.1 tagged with mVenus and PAmCherry, P63252 1-427 (natural protein)
chain: MGSVRTNRYSIVSSEEDGMKLATMAVANGFGNGKSKVHTRQQCRSRFVKKDGHCNVQFINVGEKGQRYLADIFTTCVDIRWRWMLVIFCLAFVLSWLFFGCVFWLIALLHGDLDASKEGKACVSEVNSFTAAFLFSIETQTTIGYGFRCVTDECPIAVFMVVFQSIVGCIIDAFIIGAVMAKMAKPKKRNETLVFSHNAVIAMRDGKLCLMWRVGNLRKSHLVEAHVRAQLLKSRITSEGEYIPLDQIDINVGFDSGIDRIFLVSPITIVHEIDEDSPLYDLSKQDIDNADFEIVVILEGMVEATAMTTQCRSSYLANEILWGHRYEPVLFEEKHYYKVDYSRFHKTYEVPNTPLCSARDLAEKKYILSNANSFCYENEVALTSKEEDDSENGVPESTSTDTPPDIDLHNQASVPLEPRPLRRESEI
In general, stoichiometry N refers to a count of units in the complex or per binding partner. Regarding B1, the stoichiometry N was determined as 4.

Values taken from PMC9584609.
